{
  "source": "patent US20260265316A1",
  "about": "“IMMUNOTHERAPEUTIC METHODS, COMPOUNDS, AND COMPOSITIONS FOR TREATING OR PREVENTING CELIAC DISEASE” (DBV Technologies, priority 2023, published 2026)",
  "molecules": {"B1": {"name": "QLQPFPQPELPYPQPELPYPQPELPYPQPQPGPRRKKPQPEQPEQPFPEQPQGARRKKPQQPFPQPEQPFPWQPQGPKKPSGEGSFQPSQENPQ (peptide)", "chain": "QLQPFPQPELPYPQPELPYPQPELPYPQPQPGPRRKKPQPEQPEQPFPEQPQGARRKKPQQPFPQPEQPFPWQPQGPKKPSGEGSFQPSQENPQ"}, "B2": {"name": "QLQPFPQPELPYPQPELPYPQPELPYPQPQPGPRRKKPQPEQPEQPFPEQPQGCRRKKPQQPFPQPEQPFPWQPQGPKKPSGEGSFQPSQENPQ (peptide)", "chain": "B1 chain with A54C"}, "B3": {"name": "QLQPFPQPELPYPQPELPYPQPELPYPQPQPKKKKPQPEQPEQPFPEQPQKKKKPQQPFPQPEQPFPWQPQKKKKPSGEGSFQPSQENPQ (peptide)", "chain": "QLQPFPQPELPYPQPELPYPQPELPYPQPQPKKKKPQPEQPEQPFPEQPQKKKKPQQPFPQPEQPFPWQPQKKKKPSGEGSFQPSQENPQ"}},
  "key": {"[1]": {"procedure": "Freeze-dried aliquots of the three gliadin polypeptide constructs Cv6, Av6, and 4K, as well as the four building blocks BB1, BB2a, BB3a, and BB4a were reconstituted in pure water, loaded on a PET-Ti backing film and dried in an oven (at ~30° C.). Immediately after drying, dry deposits were reconstituted at five different molarities (approximately 1.8, 0.91, 0.45, 0.091 or 0.045 mM) by pipetting up and down with either pure water (A), PBS 1× (B), or artificial perspiration (C). The concentration in soluble material was measured by HPLC at 215 nm from the solutions recovered from PET-Ti backing films. Data are median+interquartile range of the different molarities tested. Data are expressed as the percentage of soluble material recovered, based on the expected concentration (all values above 100% were set to 100).\nImmediately after drying, dry deposits were reconstituted at five different concentrations (20, 10, 5, 1 and 0.5 mg/mL) by pipetting up and down with either pure water (A), PBS 1× (B), or artificial perspiration (C). The concentration in soluble material was measured by HPLC at 215 nm from the solutions recovered from PET-Ti backing films. Data are presented as median+interquartile range of the different molarities tested. Data are expressed as the percentage of soluble material recovered, based on the expected concentration (all values above 100% were set to 100). (D) As an illustration, photographs of the reconstitution of dry deposits with pure water are shown and annotated.\nImmediately after drying, deposits were reconstituted by pipetting up and down with each of pure water, PBS 1× at pH 7.0, and artificial perspiration at pH 4.5, each at five different molarities (approximately 1.8, 0.91, 0.45, 0.091, and 0.045 mM). The concentration in soluble material was measured by HPLC at 215 nm.\nImmediately after drying, patch deposits were reconstituted by pipetting up and down with each of pure water, PBS 1× at pH 7.0, and artificial perspiration at pH 4.5, at five different concentrations (20, 10, 5, 1, and 0.5 mg/mL). The concentration in soluble material was measured by HPLC at 215 nm."}, "[2]": {"assay_type": "physicochemical", "details": "for precipitate in solution: pure water, PBS 1×, artificial perspiration, room temperature and 32° C., 24 hours", "excerpt": "Dimerization appeared to be faster in artificial perspiration and at higher concentration."}, "[3]": {"tested_on": "3072 1.26 (DQ2.5-glia-α1a specific) T cell clone", "experiment": "IFN-γ ELISpot T cell clone assay", "assay_type": "cell-based, human", "details": "10 μM, 3072 1.26 clone"}, "[4]": {"tested_on": "0482 1.2 clone (DQ8-glia-α-specific)", "experiment": "IFN-γ ELISpot T cell clone assay", "assay_type": "cell-based, human", "details": "10 μM", "procedure": "(§1) FIGS. 12A-12E are graphs depicting the evaluation of the ability of gliadin polypeptides (Cv6, Av6, and 4K) to reactivate gluten-specific T cell clones isolated from CeD patients and specific for a selection of key gliadin epitopes (i.e., DQ2.5-glia-α1a (A), DQ2.5-glia-α2 (B), DQ2.5-glia-ω1 […], DQ2.5-glia-ω2 (D), and DQ8-glia-α1 […]), by IFN-γ ELISpot assay. The three gliadin polypeptide constructs Cv6, Av6, and 4K were incubated overnight at three different molarities ([…]) with irradiated PBMCs, and five T-cell clones originally isolated from HLA-DQ2^+ or HLA-DQ8^+ CeD patients. T cells clones were specific for either DQ2.5-glia-α1a (A), DQ2.5-glia-α2 (B), DQ2.5-glia-ω1 (C), DQ2.5-glia-ω2 (D) or DQ8-glia-α1 (E) epitopes. Spots were detected with IFN-γ-biotinylated antibody and streptavidin-ALP complex and counted using an AID ELISpot reader. Data are expressed as mean Spot Forming Units (SFU) per well of 3 replicate wells+SD.\n(§2) For that purpose, five individual CD4^+ T cell clones specific for a selection of key gliadin epitopes have been used. The experimental readout was the enumeration of IFN-γ producing T-cells (Th1 cells) by ELISpot, as previously described: Hardy M Y, et al., J Autoimmun 2015; 56:56-65; Anderson et al., Clinical & Experimental Immunology, 2021, Issue 3, June 2021, Pages 321-334, the entire contents of each of which are incorporated by reference herein.\n(§3) For this in vitro assay, irradiated peripheral blood mononuclear cells (PBMCs) isolated from the blood of healthy donors matching for HLA-DQ2.5 or HLA-DQ8 were used as a source of APCs.\n(§4) As a positive control for antigen-specific T cell stimulation, the cognate gliadin-derived immunogenic peptide known to activate each CD4^+ T cell clone was used, as described in the literature (Sollid et al., Immunogenetics, 2020 February; 72(1-2):85-88; Tye-Din et al., Sci Transl Med, 2010, Vol. 2, Issue 41, 41-51, the entire contents of each of which are incorporated by reference herein). Negative controls consisted of cells treated with a cocktail of four irrelevant peptides of the following sequence: PFPLPQP (SEQ ID NO:87), PQYQPEQ (SEQ ID NO:88), PFEPQPL (SEQ ID NO:89), and PQSYPEQ (SEQ ID NO:90)."}, "[5]": {"tested_on": "3177 2.27 (DQ2.5-glia-ω1 specific) T cell clone", "experiment": "IFN-γ ELISpot T cell clone assay", "assay_type": "cell-based, human", "details": "10 μM, 3177 2.27 clone", "procedure": "as §1, §2, §3, §4"}},
  "note": "Numbering of substitutions follows the chain as printed.",
  "data": [
    {"molecule": "H-PQPEQPEQPFPEQPQ-NH2 [BB2a]", "values": [
      {"measurement": "median percentage of soluble material recovered from the patch backing film", "setting": "[1]", "value": "above 80%"}
    ]},
    {"molecule": "H-PSGEGSFQPSQENPQ-NH2 [BB4a]", "values": [
      {"measurement": "median percentage of soluble material recovered from the patch backing film", "setting": "[1]", "value": "above 80%"}
    ]},
    {"molecule": "B1", "values": [
      {"measurement": "precipitate in solution", "setting": "[2]", "value": "no precipitate was observed"},
      {"measurement": "mean spot forming units (IFN-γ ELISpot)", "setting": "[3]", "value": 183},
      {"measurement": "mean spot forming units (IFN-γ ELISpot)", "setting": "[4]", "value": 201},
      {"measurement": "mean spot forming units (IFN-γ ELISpot)", "setting": "[5]", "value": 21}
    ]},
    {"molecule": "B2", "values": [
      {"measurement": "dimer formation in solution (HPLC and LC-MS)", "setting": "[2]; faster in artificial perspiration and at higher concentration", "value": "forms some dimers in solution"},
      {"measurement": "mean spot forming units (IFN-γ ELISpot)", "setting": "[3]", "value": 159},
      {"measurement": "mean spot forming units (IFN-γ ELISpot)", "setting": "[4]", "value": 173},
      {"measurement": "mean spot forming units (IFN-γ ELISpot)", "setting": "[5]", "value": 15}
    ]},
    {"molecule": "B3", "values": [
      {"measurement": "precipitate in solution", "setting": "[2]", "value": "no precipitate was observed"},
      {"measurement": "mean spot forming units (IFN-γ ELISpot)", "setting": "[3]", "value": 177},
      {"measurement": "mean spot forming units (IFN-γ ELISpot)", "setting": "[4]", "value": 175},
      {"measurement": "mean spot forming units (IFN-γ ELISpot)", "setting": "[5]", "value": 14}
    ]}
  ]
}
